According to PMC9006252:

Molecular target: Plasmodium falciparum plasmoredoxin (Plasmodium falciparum)
Assay: SEC; PfPlrx without TCEP, at least partially oxidized

stoichiometry N: 2
Substance: Plasmodium falciparum plasmoredoxin (natural protein)
